Data taken from paper doi:10.1101/2022.04.10.487811.

Molecular target: HA H7 HK17 (A/Hong Kong/125/2017(H7N9)) hemagglutinin (influenza A virus A/Hong Kong/125/2017(H7N9))
Test: BLI

Q: With MEDI8852 Fab (wildtype) as the substance, how does the Kd read?
A: Its Kd is 210 pM.
